Assay results from US20240392262A1, “TRANSPOSASE AND USES THEREOF” (Poseida Therapeutics, Inc., published 2024).
Substitutions are numbered along the chain they refer to.

T1: PAH1 Left TAL-PBx (synthetic construct)
T1 chain: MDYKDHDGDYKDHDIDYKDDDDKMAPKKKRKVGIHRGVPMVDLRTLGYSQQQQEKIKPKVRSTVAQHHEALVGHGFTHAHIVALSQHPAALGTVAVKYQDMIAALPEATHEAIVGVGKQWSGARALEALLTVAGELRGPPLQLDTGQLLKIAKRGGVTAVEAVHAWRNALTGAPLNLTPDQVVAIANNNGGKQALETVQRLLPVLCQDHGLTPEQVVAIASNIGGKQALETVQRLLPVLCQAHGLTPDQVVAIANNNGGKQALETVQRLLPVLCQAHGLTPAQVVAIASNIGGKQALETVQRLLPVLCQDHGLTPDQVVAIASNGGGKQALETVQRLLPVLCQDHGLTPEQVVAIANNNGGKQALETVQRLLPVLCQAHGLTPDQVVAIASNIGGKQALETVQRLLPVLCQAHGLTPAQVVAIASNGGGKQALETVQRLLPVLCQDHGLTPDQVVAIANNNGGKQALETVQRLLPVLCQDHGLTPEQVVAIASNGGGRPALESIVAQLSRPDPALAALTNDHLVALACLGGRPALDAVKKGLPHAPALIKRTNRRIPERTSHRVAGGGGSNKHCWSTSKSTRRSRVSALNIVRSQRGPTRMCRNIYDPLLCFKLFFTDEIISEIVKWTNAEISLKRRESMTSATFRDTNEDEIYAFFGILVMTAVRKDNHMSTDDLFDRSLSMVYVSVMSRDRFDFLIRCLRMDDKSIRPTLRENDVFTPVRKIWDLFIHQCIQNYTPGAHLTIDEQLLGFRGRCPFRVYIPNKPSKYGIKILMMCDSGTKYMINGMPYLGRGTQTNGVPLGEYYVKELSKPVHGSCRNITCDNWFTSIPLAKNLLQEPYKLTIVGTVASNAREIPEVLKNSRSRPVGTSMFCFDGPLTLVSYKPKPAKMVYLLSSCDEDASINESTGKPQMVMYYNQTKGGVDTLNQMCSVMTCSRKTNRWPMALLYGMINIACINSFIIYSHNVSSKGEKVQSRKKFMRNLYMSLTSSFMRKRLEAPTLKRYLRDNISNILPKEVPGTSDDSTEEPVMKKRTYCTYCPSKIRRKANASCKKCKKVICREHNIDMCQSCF

T2: PAH1 Right TAL-PBx (synthetic construct)
T2 chain: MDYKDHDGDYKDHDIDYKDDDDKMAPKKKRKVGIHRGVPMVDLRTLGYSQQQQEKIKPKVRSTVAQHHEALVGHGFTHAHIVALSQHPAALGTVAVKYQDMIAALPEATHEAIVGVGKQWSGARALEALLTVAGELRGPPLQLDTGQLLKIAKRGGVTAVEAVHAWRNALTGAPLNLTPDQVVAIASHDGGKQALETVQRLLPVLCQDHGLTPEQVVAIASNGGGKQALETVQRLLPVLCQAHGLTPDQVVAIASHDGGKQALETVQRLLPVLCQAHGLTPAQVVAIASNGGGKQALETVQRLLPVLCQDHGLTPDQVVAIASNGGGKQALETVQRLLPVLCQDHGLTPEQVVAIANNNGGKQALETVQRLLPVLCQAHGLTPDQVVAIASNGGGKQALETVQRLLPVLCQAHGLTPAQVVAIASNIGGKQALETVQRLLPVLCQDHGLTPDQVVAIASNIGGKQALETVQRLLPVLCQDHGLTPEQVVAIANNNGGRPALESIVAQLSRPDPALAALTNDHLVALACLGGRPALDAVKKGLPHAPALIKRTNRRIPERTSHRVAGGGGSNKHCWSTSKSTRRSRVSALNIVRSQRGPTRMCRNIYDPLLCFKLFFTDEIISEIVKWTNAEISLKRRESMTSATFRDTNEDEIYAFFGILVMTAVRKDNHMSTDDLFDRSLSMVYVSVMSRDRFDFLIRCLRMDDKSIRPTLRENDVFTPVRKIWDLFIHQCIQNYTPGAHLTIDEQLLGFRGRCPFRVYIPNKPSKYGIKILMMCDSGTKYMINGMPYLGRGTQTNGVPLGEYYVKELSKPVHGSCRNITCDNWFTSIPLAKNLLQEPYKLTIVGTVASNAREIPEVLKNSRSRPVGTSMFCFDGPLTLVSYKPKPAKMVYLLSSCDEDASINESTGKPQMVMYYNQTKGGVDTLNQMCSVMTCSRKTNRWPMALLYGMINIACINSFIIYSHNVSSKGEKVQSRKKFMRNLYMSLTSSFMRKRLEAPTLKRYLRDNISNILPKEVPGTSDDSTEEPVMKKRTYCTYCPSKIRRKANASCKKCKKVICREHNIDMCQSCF

T3: PAH2 Left TAL-PBx (synthetic construct)
T3 chain: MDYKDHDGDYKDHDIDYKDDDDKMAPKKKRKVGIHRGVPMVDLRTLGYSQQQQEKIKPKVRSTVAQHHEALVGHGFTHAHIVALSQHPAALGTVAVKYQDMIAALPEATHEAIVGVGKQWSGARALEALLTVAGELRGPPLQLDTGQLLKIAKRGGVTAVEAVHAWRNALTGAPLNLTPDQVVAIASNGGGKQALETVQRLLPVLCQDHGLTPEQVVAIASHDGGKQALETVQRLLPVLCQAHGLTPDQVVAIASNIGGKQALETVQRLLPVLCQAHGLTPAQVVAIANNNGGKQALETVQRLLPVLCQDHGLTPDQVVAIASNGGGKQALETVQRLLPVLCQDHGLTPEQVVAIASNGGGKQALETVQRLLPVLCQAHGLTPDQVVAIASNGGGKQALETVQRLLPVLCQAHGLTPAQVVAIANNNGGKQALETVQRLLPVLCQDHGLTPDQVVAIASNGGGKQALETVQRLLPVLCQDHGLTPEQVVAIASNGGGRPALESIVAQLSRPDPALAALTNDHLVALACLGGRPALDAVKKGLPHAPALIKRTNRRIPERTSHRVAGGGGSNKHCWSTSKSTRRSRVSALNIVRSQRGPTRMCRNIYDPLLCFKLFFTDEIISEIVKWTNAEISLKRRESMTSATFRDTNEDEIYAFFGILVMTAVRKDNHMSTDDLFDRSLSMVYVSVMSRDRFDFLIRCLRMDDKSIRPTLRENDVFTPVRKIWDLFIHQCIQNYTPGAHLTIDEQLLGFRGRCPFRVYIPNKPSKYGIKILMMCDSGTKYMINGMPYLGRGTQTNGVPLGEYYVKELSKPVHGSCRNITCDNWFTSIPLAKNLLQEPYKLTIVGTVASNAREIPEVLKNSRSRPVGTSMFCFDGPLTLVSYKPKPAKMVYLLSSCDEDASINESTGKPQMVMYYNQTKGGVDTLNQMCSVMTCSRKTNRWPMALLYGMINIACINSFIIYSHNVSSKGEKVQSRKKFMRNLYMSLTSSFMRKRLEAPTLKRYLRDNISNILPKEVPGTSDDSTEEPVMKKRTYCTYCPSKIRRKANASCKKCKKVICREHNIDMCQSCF

T4: PAH2 Right TAL-PBx (synthetic construct)
T4 chain: T2 chain with H256N, D257G, N357S, N359I, S391N, G393N, S425N, I427N

B1: PAH1 target (dsDNA)
DNA 1: TGAGATGATGTAACATCTATTCCATTAATTTCATTAACTTGCTTACAAGAGA
DNA 2: TCTCTTGTAAGCAAGTTAATGAAATTAATGGAATAGATGTTACATCATCTCA
B2: PAH2 target (dsDNA)
DNA 1: TTCAGTTTGTTATATATGTGTCTATTAAGTTAGATTGTGAGCTCCTAAAAGA
DNA 2: TCTTTTAGGAGCTCACAATCTAACTTAATAGACACATATATAACAAACTGAA

How the values were obtained:
Settings in all cases: tags: 3xFlag, SV40 NLS
PAH1 Left TAL-PBx = biological target: T1, PAH1 Left TAL-PBx; assay: cell_activity; left only
PAH1 Right TAL-PBx = biological target: T2, PAH1 Right TAL-PBx; assay: cell_activity; right only
PAH2 Left TAL-PBx = biological target: T3, PAH2 Left TAL-PBx; assay: cell_activity; left only
PAH2 Right TAL-PBx = biological target: T4, PAH2 Right TAL-PBx; assay: cell_activity; right only

| Binder | activity (PAH1 Left TAL-PBx) | activity (PAH1 Right TAL-PBx) | activity (PAH2 Left TAL-PBx) | activity (PAH2 Right TAL-PBx) |
| --- | --- | --- | --- | --- |
| B1 | 5.7 % GFP+ | 4.2 % GFP+ |  |  |
| B2 |  |  | 8.8 % GFP+ | 7 % GFP+ |
